According to US20150307610A1 (AbbVie / Abbott, published 2015):

T1: E. coli RAGE Construct #7, 6His-(Thr)-[RAGE (235-336)] (human)
T1 construct: N-terminal 6His-(Thr) tag is part of the entry; expressed in E. coli; also called RAGE protein #7
T1 chain: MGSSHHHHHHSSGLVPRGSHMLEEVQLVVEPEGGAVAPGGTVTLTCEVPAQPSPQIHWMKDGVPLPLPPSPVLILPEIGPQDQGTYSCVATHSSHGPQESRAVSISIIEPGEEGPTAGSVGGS

B1: anti-human RAGE monoclonal antibody 11E6 (murine, hybridoma-derived) (antibody, V domains shown)
VH: QIQLVQSGPELKKPGETVKISCKASGYTFTNFGMNWVKQAPGKGLKWMGYINTNTGESIYSEEFKGRFAFSLETSASTAYLQINNLKNEDTATYFCARSRMVTAYGMDYWGQGTSVTVSS
VL: DIVMTQSQKFMSTSVGDRVSITCKASQNVGTAVAWYQQRPGQSPKLLIFSASNRYTGVPDRFTGSGSGTDFTLTLSNMQPEDLADYFCQQYSSYPLTFGVGTKLELKR
notes: also called mAb11E6; ML37-11E6
B2: anti-human RAGE monoclonal antibody 4E5 (murine, hybridoma-derived) (antibody, V domains shown)
VH: QVQLQQSGAELVRPGTSVKVSCKASGYAFNNYLIEWIKQRPGQGLEWIGVINPGSGGTNHNEKFKVKATLTADKSSSTAYIQLSSLTSDDSAVYFCARSAGTARARFAYWGQGTLVTVSA
VL: DIQMTQSPSSLSASLGERVSLTCRASQDIGSSLNWLQQEPDGTIKRLIYATSSLDSGVPKRFSGSRSGSDYSLTISSLESEDFVDYYCLQYASFPFTFGSGTKLEIKR
notes: also called mAb4E5; ML37-4E5

Experiments:
[1] = target: T1, E. coli RAGE Construct #7, …; assay: binding analysis of RAGE mutants of human sRAGE expressed in E. coli
[2] = target: T2, RAGE fragment coated in Fig. 4C (antigen not named on the sheet); assay: direct ELISA: purified E. coli RAGE construct protein coated at 1 ug/mL (construct not named for this panel), mAb titrated, donkey anti-mouse HRP, TMB
T2 construct: Placeholder: the panel cannot be tied to one of m19-m25
Procedure: (§1) Antigens (purified construct #1-7 proteins) were diluted into Coating Buffer [100 mM NaHCO₃, pH 8.2] to 1 μg/ml, and 100 μl of the resulting solution was then aliquoted into a 96-well Nunc Immuno Plate (Maxi-Sorb Surface, flat bottom, catalog #439454). The plate was sealed with sealing film and incubated at 4° C. overnight. The next day, the plate wells were each washed 3 times with 150 μL PBST buffer [Sigma PBS+0.05% Tween 20]. Then 300 ul of blocking solution (3% NFDM in PBST) was added to each well. The plate was incubated for 2 hours at room temperature and shaking at 100 rpm. After the incubation step, each well was again washed three times with 150 uL PBST. 100 ul of the corresponding antibody to be tested (i.e. 7F9, 11E6, and 4E5) was added at various dilutions made in PBST/0.5% BSA. The plate was then sealed with sealing film and incubated for 2 hours at room temperature and shaking at 100 rpm. Next the antibody solution was drained out of the wells, and each well then washed three times with 200 ul PBST. To each well then 200 ul of a 1:5000 dilution (in PBST/1% NFDM) of conjugated secondary antibody [Donkey anti-mouse HRPO conjugate, Jackson Immuno Research, Catalog #715-035-150] was added. […] Finally, 50 μL of 2M H₂SO₄ was added to each well to stop the reaction and the […] of each well was measured using a microtiter plate reader.

[3] = target: T1, E. coli RAGE Construct #7, …; assay: ELISA, antigen coated at 1 ug/ml
Procedure: as §1

Binder	binding result [1]	EC50 (read off the curve) [2]	binding result [3]
B1	binds	~0.03 nM	–
B2	–	–	binds
